The assay addresses active trimeric human TNFα (human, UniProt P01375 77-233). In words: SPR.

Positions count from the first letter of the chain named.

Chain of active trimeric human TNFα (P01375 77-233): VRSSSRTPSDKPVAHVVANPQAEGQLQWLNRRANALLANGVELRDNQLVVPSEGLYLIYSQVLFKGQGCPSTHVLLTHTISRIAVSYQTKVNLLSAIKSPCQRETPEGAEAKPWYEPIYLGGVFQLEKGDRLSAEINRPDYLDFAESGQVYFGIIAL

B1: TNFI-Nb2 (VHH)
VHH: QVQLVESGGGLVQPGGSLRLSCAASGFAFNDHWMYWVRQAPGKELEWVSEINTNGLITKYADFVKGRFTVSRDNAKNTLYLQMNSLEPEDTAVYSCSRNQIGTLRGQGTQVTVSS
For the molecule B1, binding was characterised by a dissociation constant (Kd) of 0.077 nM and the koff – broadly, a measure of how fast the partners let go of each other – is 2.87e-05 s⁻¹.

B2: TNFI-Nb1 (VHH)
VHH: B1 VHH with Q1E, N84D, E87R
For the molecule B2, binding was characterised by a dissociation constant (Kd) of 0.219 nM.

B3: TNFI-Nb3 (VHH)
VHH: B1 VHH with K76E
Consider B3, for which binding was characterised by a dissociation constant (Kd) of 0.392 nM. This Kd is about 1.8-fold higher than that of the molecule before.

(Values after paper PMC12080732 (mAbs, 2025).)
